Assay [1] concerns the target purified αVβ3 integrin (UniProt P06756). Kind of assay: antibody at 1 µg/ml added to 2 µg purified αVβ3 before [125I]-T4; native gel, band intensity.
For assay [2] the target is unchanged. Kind of assay: antibody at 2 µg/ml added to 2 µg purified αVβ3 before [125I]-T4; native gel, band intensity.
For assay [3] the target is unchanged. Kind of assay: antibody at 4 µg/ml added to 2 µg purified αVβ3 before [125I]-T4; native gel, band intensity.
For assay [4] the target is unchanged. As to the kind of experiment: antibody at 8 µg/ml added to 2 µg purified αVβ3 before [125I]-T4; native gel, band intensity.
Assay [5] shares this target. Kind of assay: antibody at 8 µg/ml added to purified αVβ3 30 min before [125I]-T4; native gel; the legend's value differs from the 59% of paragraph 377.

purified αVβ3 integrin, sequence (P06756 31-1048 limits assumed, form in doubt, chain 1 of 2): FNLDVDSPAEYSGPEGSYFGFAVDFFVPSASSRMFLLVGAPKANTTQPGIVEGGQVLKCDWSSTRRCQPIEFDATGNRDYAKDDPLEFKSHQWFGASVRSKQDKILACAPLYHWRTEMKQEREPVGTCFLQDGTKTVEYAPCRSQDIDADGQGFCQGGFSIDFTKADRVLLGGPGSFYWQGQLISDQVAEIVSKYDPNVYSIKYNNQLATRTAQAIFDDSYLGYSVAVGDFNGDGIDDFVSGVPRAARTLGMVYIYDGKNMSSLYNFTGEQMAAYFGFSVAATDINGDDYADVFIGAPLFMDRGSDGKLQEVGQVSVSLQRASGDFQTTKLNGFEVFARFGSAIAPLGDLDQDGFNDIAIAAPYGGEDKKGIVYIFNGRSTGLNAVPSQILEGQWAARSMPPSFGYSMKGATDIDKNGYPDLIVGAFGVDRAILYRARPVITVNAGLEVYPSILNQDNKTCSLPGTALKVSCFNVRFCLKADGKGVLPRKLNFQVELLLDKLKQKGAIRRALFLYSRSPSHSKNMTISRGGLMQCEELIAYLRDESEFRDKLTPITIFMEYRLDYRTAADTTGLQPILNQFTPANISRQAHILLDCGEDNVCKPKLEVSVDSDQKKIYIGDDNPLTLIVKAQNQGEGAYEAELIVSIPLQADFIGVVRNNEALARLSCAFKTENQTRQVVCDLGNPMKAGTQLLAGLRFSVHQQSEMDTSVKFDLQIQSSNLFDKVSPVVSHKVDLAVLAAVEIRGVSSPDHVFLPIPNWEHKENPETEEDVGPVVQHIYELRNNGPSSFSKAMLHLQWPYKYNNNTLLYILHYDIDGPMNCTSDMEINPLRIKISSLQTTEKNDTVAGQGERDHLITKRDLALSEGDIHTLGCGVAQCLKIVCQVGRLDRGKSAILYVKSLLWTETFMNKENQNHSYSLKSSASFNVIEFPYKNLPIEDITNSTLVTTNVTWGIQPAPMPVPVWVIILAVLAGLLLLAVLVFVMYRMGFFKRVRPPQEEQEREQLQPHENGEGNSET
purified αVβ3 integrin, sequence (P05106 27-788 limits assumed, form in doubt, chain 2 of 2, further chain): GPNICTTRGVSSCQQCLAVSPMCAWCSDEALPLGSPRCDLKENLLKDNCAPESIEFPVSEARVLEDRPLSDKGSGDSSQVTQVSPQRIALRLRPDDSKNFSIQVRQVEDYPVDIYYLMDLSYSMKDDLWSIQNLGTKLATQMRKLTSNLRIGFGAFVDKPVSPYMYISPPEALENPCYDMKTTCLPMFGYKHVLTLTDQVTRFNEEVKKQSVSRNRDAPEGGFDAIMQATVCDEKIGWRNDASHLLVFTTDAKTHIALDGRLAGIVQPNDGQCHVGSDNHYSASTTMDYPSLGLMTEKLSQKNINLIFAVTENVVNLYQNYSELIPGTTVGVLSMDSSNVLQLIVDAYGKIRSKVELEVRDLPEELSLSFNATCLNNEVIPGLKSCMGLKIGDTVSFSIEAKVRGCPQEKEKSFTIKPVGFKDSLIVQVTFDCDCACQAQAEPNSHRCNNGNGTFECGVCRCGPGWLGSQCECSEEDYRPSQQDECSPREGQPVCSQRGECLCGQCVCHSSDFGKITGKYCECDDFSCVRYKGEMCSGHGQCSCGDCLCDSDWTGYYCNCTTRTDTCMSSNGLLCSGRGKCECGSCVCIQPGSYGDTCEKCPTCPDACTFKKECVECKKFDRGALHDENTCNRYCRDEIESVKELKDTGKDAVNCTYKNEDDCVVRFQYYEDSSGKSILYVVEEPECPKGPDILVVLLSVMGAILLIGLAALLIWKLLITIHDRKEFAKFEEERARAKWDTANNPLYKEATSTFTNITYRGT

monoclonal antibody LM609 to αVβ3: in assay [1], the percent reduction of integrin-[125I]T4 complex formation amounted to 52%. Besides, the percent decrease of band intensity (integrin-[125I]T4 complex) in assay [2] turned out to be 64%; in assay [3] it was 63%; in assay [4], 81%.
In the case of monoclonal antibody SC7312 to αVβ3, the percent reduction of T4 binding to αVβ3 in assay [1] amounted to 20%; in assay [2], 46%; in assay [3] it was 47%; in assay [4], 59%; in assay [5] it was 58%.

These data come from patent publication US20080124280A1.
